Experimental data from the supplement of paper PMC10724198.
± gives the standard deviation of the averaged measurements.

system: Saccharomyces cerevisiae; test: protein stability index of tFT-peptide fusion (C-terminal peptide) (PSI (0-1 scale)); higher = more stable (slower turnover); details: genetic background: das1 deletion; temperature: 30 C
Protocol: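 MPS profiling in S. cerevisiae of the yeast C-terminome library: the last 12 aa of each annotated ORF are fused to the C-terminus of a sfGFP-mCherry timer, after a GGGS linker. Cells are FACS-sorted into 8 mCherry/sfGFP bins and deep-sequenced. PSI runs from 0 (unstable) to 1 (stable); wild type and das1Δ backgrounds, two technical replicates each.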

Sequence	protein stability index
AFKGHDNSDDKA [RIB2 C-terminal 12 aa]	0.706 ± 0.017
AFKRKKQELGVN [QDR2 C-terminal 12 aa]	0.671 ± 0.013
AFSSNDLLTVHL [BRE1 C-terminal 12 aa]	0.698 ± 0.036
AFTTYRAFVEPN [PMI40 C-terminal 12 aa]	0.72 ± 0.044
AGSRRLDFRFYH [YOL162W C-terminal 12 aa]	0.678 ± 0.064
AHYNNGLQWFSD [EMC4 C-terminal 12 aa]	0.7084 ± 0.0065
AIGNCVQDEEKL [AVL9 C-terminal 12 aa]	0.717 ± 0.0097
AIMAVACNVIFS [AGA1 C-terminal 12 aa]	0.292 ± 0.024
AIWKHGIVEEKI [TMA19 C-terminal 12 aa]	0.695 ± 0.014
AKLFKEIFAYKV [COQ8 C-terminal 12 aa]	0.664 ± 0.0097
AKSLIHLFTSNQ [NRM1 C-terminal 12 aa]	0.694 ± 0.042
AKWSISHKSNTG [YIL066W-A C-terminal 12 aa]	0.694 ± 0.0059
ALGEHYNSLHDS [OTU2 C-terminal 12 aa]	0.7 ± 0.016
ALKKEYEAKKKA [COA3 C-terminal 12 aa]	0.6861 ± 0.0068
ALPTYTMEYLDI [UTP8 C-terminal 12 aa]	0.72 ± 0.032
ALQVLEERMVNP [YOL107W C-terminal 12 aa]	0.7046 ± 0.003
AMDHKFFKTKFE [CKA2 C-terminal 12 aa]	0.68817 ± 0.00016
AMMKAEENFVKS [MAG1 C-terminal 12 aa]	0.655 ± 0.029
ANEALQHILDDS [INO2 C-terminal 12 aa]	0.6882 ± 0.0011
AQLVSLVRNQKH [YLR198C C-terminal 12 aa]	0.717 ± 0.022
ARAAAEYDCTVA [ATR1 C-terminal 12 aa]	0.702 ± 0.013

Sequence	protein stability index
ARAAEERMKKKY [VMS1 C-terminal 12 aa]	0.671 ± 0.023
AREAVVRAGFDS [YIH1 C-terminal 12 aa]	0.729 ± 0.01
ASGEYESDGSDD [RRN3 C-terminal 12 aa]	0.677 ± 0.026
ASNGSIFQFSSP [REC104 C-terminal 12 aa]	0.692 ± 0.023
ASSSDRPTVAAT [RRT5 C-terminal 12 aa]	0.6995 ± 0.0066
ATICSVAFVKQN [EFM4 C-terminal 12 aa]	0.6241 ± 0.0034
ATPPYQVFKQQL [FMN1 C-terminal 12 aa]	0.698 ± 0.071
ATRRHLAHAPKL [DPI8 C-terminal 12 aa]	0.799 ± 0.016
AVETLKKGGFLP [YDL177C C-terminal 12 aa]	0.7 ± 0.013
AVFYIFETLSAL [ORT1 C-terminal 12 aa]	0.653 ± 0.015
AVGIQSSESLLM [YMR175W-A C-terminal 12 aa]	0.688 ± 0.012
AVKYLYRQIVRN [EFM2 C-terminal 12 aa]	0.6832 ± 0.0033
AVNGSDGQHCQI [AVT2 C-terminal 12 aa]	0.687 ± 0.023
AYQITKRGIETA [RAD57 C-terminal 12 aa]	0.675 ± 0.061
CAVDAIFYWLLM [GMC1 C-terminal 12 aa]	0.652 ± 0.026
CAVGGPEKLKFY [BUD3 C-terminal 12 aa]	0.726 ± 0.018
CCGSVLLWCLVV [YLR437C-A C-terminal 12 aa]	0.4309 ± 0.0019
CDLVKNSNGLST [YOR200W C-terminal 12 aa]	0.68 ± 0.01
CENANYRGAEVP [YIL175W C-terminal 12 aa]	0.692 ± 0.017
CFSCFHLSTHTN [YDR157W C-terminal 12 aa]	0.725 ± 0.018
CFWRMICSEPKL [YAR064W C-terminal 12 aa]	0.736 ± 0.0093

Sequence	protein stability index
CGGRPQYGVMFA [YDR249C C-terminal 12 aa]	0.6887 ± 0.0013
CINCSRFIHNIN [YMR230W-A C-terminal 12 aa]	0.70103 ± 0.00057
CNLFSERKPVNH [YGL188C-A C-terminal 12 aa]	0.6966 ± 0.0021
CSGIPSGSGASC [PGU1 C-terminal 12 aa]	0.691 ± 0.011
CWMLWLQDRPVC [YBL112C C-terminal 12 aa]	0.627 ± 0.017
CYQDYNHDHRSH [OSW2 C-terminal 12 aa]	0.7147 ± 0.0055
DAKNANEKNKTY [PIS1 C-terminal 12 aa]	0.687 ± 0.035
DATLYLGRFLPH [PEF1 C-terminal 12 aa]	0.70773 ± 2.5e-05
DDCLIELPNGNI [RRN9 C-terminal 12 aa]	0.6888 ± 0.0021
DDGIATYNNTQG [KNS1 C-terminal 12 aa]	0.693 ± 0.03
DDILSHGFEPLA [HTC1 C-terminal 12 aa]	0.7177 ± 0.0033
DDKFRRSYDVKK [ERG13 C-terminal 12 aa]	0.731 ± 0.026
DDTVQFMRRALE [EAF5 C-terminal 12 aa]	0.665 ± 0.045
DEFWTDLFMNDI [WAR1 C-terminal 12 aa]	0.77 ± 0.0079
DEQKHNENENSR [RPO21 C-terminal 12 aa]	0.693 ± 0.022
DESVDMNVGISY [YCL046W C-terminal 12 aa]	0.721 ± 0.0092
DETIKLKDKKIK [MRPL6 C-terminal 12 aa]	0.714 ± 0.012
DFFREVKYGKKQ [ODC1 C-terminal 12 aa]	0.7097 ± 0.0027
DFFYFFQGPFVL [YOR072W-B C-terminal 12 aa]	0.721 ± 0.013
DGGWGNRGRSNY [DBP2 C-terminal 12 aa]	0.701 ± 0.01
DGKIKIWKISRN [GID7 C-terminal 12 aa]	0.701 ± 0.021

Sequence	protein stability index
DGLLKNVWSYSR [RPS21A C-terminal 12 aa]	0.7161 ± 0.0069
DGPKFTFKRRKG [XRS2 C-terminal 12 aa]	0.713 ± 0.027
DGWIPTRTDDVK [TAD1 C-terminal 12 aa]	0.703 ± 0.008
DGYPKDNEDIDP [MAL13 C-terminal 12 aa]	0.70018 ± 0.0004
DIEVDHTKSTDP [DPB3 C-terminal 12 aa]	0.6917 ± 0.0038
DILSQIIESCWV [YNL174W C-terminal 12 aa]	0.654 ± 0.0069
DIMVFEISNCRV [HIS1 C-terminal 12 aa]	0.6816 ± 0.0057
DIPRSNVYGSLI [SCY1 C-terminal 12 aa]	0.7131 ± 0.0063
DITYDDYKSIDF [SUT1 C-terminal 12 aa]	0.694 ± 0.024
DLEMEVIAVEKN [MMF1 C-terminal 12 aa]	0.681 ± 0.0085
DLKKLIWNEIFS [FUS3 C-terminal 12 aa]	0.707 ± 0.021
DLQSLIESNGFA [PFK27 C-terminal 12 aa]	0.689 ± 0.021
DMLYDELMKTME [KSS1 C-terminal 12 aa]	0.7032 ± 0.00096
DNNDLAKSSSQK [CMI7 C-terminal 12 aa]	0.7059 ± 0.0068
DNNTVTANPTAR [YJR012C C-terminal 12 aa]	0.7033 ± 0.0028
DRCKEAVDHLMS [ISM1 C-terminal 12 aa]	0.686 ± 0.011
DRIAAQTLEEDE [RPS19A C-terminal 12 aa]	0.687 ± 0.031
DSDLFFVAEAIS [YIL032C C-terminal 12 aa]	0.7373 ± 0.0022
DSFVEFWGRILY [PUL4 C-terminal 12 aa]	0.704 ± 0.033
